Test results published in US20250298032A1 (INSTITUTE FOR RESEARCH IN BIOMEDICINE, published 2025).
Residue numbers refer to the chain shown, from its start.

T1: CXCL16 N-loop peptide (human, biotin-Ahx at the N-terminus; amidated at the C-terminus)
T1 construct: Synthetic peptide, captured on Neutravidin-coated ELISA plates
T1 peptide: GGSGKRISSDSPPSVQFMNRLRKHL

T2: CCL2 N-loop peptide (human, biotin-Ahx at the N-terminus; amidated at the C-terminus)
T2 peptide: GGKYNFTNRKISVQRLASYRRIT

T3: CCL7 N-loop peptide (human, biotin-Ahx at the N-terminus; amidated at the C-terminus)
T3 peptide: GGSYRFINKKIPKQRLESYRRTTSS

T4: CCL11 N-loop peptide (human, biotin-Ahx at the N-terminus; amidated at the C-terminus)
T4 peptide: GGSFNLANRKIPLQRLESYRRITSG

T5: CCL13 N-loop peptide (human, biotin-Ahx at the N-terminus; amidated at the C-terminus)
T5 peptide: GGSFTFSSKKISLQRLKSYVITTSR

T6: CCL8 N-loop peptide (human, biotin-Ahx at the N-terminus; amidated at the C-terminus)
T6 construct: Synthetic peptide (GenScript), captured on Neutravidin-coated ELISA plates
T6 peptide: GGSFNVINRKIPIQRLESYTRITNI

T7: CXCL13 N-loop peptide (human, biotin-Ahx at the N-terminus; amidated at the C-terminus)
T7 construct: Synthetic peptide, captured on Neutravidin-coated ELISA plates
T7 peptide: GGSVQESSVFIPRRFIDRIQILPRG

B1: aCXCL16.003 (antibody, human IgG1, V domains shown)
VH: EVQLVQSGAEVKKPGESLKISCKGSGYSFTSYWIGWVRQMPGKGLEWMGIIYPGDSDTRYSPSFQGQVTISADKSISTAYLQWSSLKASDTAMYYCARLHGDLYYFDYWGQGTLVTVSS
VL: QSVLTQEASVSGTVGQKVTLSCTGNSNNVGSYAVGWYQQISHGAPKTVMFGNSLPSGIPDRFSGSKSGTTASLTISGLQPEDEADYYCSTWDYSLSAQVFGGGTKLTVL
notes: also called anti-CXCL16 N-loop antibody
B2: aCCL8.001 (antibody, human IgG1, V domains shown)
VH: QVQLQESGPGLVKPAETLSLTCTVSGDSVSSESYFWGWIRQSPRKGLEWLGAVWYNGDTYYNPSVGGRVTISMDTSMNEISLRLSSVTAADTAVYFCATEHCIDEICSPASDSWGQGTLVTVSS
VL: DIVMTQSPDSLAVSLGERATINCKSSQSVFFSSNNENCLAWFQQKPGQPPKLLIHWASTRASGVPDRFSGSGSGTDFTLTISSLQAEDVAVYYCHQYLKAPRTFGQGTKVEIK
notes: kappa (VK4-1); also called VH4-39/VK4-1 antibody; anti-CCL8 antibody
B3: aCCL8.003 (antibody, human IgG1, V domains shown)
VH: QLQLQESGPGLVKPSETLSLTCTVSGDSVSSSFYFWGWVRQPPGKGLEWIGSIYYTGDTYYKPSLKSRVTISMNTSKNQFSLRLSSVTAADTAVYYCATEFCTSGICHPASDSWGQGTLVTVSS
VL: B2 VL with F30L, F31L, S33A, E36K, H55Y, A61E, V91I, H95Q, L98Y
notes: also called VH4-39/VK4-1 antibody; anti-CCL8 antibody
B4: aCCL8.004 (antibody, human IgG1, V domains shown)
VH: QVQLQESGPGLVKPAETLSLTCIVSGDSVSSPSYFWGWIRQPPGKGLEWIGATWFNGDTYYNPSLQSRVSISMDMSLNRIYLSLNSVTAADTAVYFCATEHCFDEICSPASDSWGQGTLVTVSS
VL: B2 VL with N22S, K24M, H55Y, H95Q
notes: as for B3
B5: aCCL8.005 (antibody, human IgG1, V domains shown)
VH: B3 VH with S52G, I53T, Y61H, K62N, V69L, N74D, T103I, S104N, H108R
VL: B2 VL with F30L, F31L, E36K, K45R, H55Y, A61E, V91I, H95Q, L98Y
notes: as for B3
B6: aCXCL13.001 (antibody, human IgG1, V domains shown)
VH: QVQLVESGGGLVKPGGSLRLSCAASGFMFSDYYMSWIRQAPGKGLEWISYIGNSDASTFYADSVKGRFAISRDNAKNLLFLQMNSLRAEDTAVYYCARDGYSHSRGYSYGRKDAFDIWGRGTMVTVSS
VL: EIVLTQSPATLSLSPGERATLSCRASQSVSSYLAWYQQKPGQAPRLLIYAASQRATGIPARFSGTGSGTDFTLTISSLEPEDSAVYYCQQRGNWPGTFGQGTKVEIK
notes: also called anti-CXCL13 N-loop antibody

Columns and labels:
[1] = biological target: T1, CXCL16 N-loop peptide; test: ELISA, biotinylated CXCL16 N-loop peptide on neutravidin plate, anti-human IgG-HRP, OD450 nm
Experimental: (§1) To evaluate the antibodies' binding to chemokine peptides, 96-well plates (ThermoFisher, 442404) were coated with 50 μl per well of a 2 μg/ml Neutravidin (Life Technologies, 31000) solution in PBS, overnight at room temperature. Plates were washed 4 times with washing buffer (PBS+0.05% Tween-20 [Sigma-Aldrich]) and incubated with 50 μl per well of a 50 nM biotinylated peptide solution in PBS for 1 h at room temperature. After washing 4 times with washing buffer, plates were incubated with 200 μl per well of blocking buffer (PBS+2% BSA+0.05% Tween-20) for 2 h at room temperature. Plates were then washed 4 times with washing buffer, and serial dilutions of monoclonal antibodies or plasma were added in PBS +0.05% Tween-20 and incubated for 1 h at room temperature. To screen for the presence of anti-chemokine IgGs, plasma samples were assayed (unless otherwise stated) at 1:50 starting dilution followed by 3 fourfold serial dilutions (1:200, 1:800, 1:3200). Monoclonal antibodies were tested at 5 μg/ml starting concentration followed by 11 threefold serial dilutions. Plates were subsequently washed 4 times with washing buffer and incubated with anti-human IgG secondary antibody conjugated to horseradish peroxidase (HRP) (GE Healthcare, NA933) at a 1:5000 dilution in PBS+0.05% Tween-20. Finally, after washing 4 times with washing buffer, plates were developed by the addition of 50 μl per well of the HRP substrate TMB (ThermoFisher, 34021) for 9 min. The developing reaction was stopped with 50 μl per well of a 1 M H₂SO₄ solution, and absorbance was measured at 450 nm with an ELISA microplate reader (BioTek) with Gen5 software. A positive control (broadly reactive plasma from donor CLM70) and a negative control (uninfected participant) samples were included in each experiment. The Area Under the Curve (AUC) was obtained from two independent experiments and plotted with GraphPad Prism.

[2] = biological target: T2, CCL2 N-loop peptide; test: ELISA, biotinylated CCL2 N-loop peptide on neutravidin plate, OD450 nm
Experimental: as §1, with “Plates were subsequently washed 4 times with washing buffer and incubated with anti-human IgG secondary antibody conjugated to horseradish peroxidase (HRP) (GE Healthcare, NA933) at a 1:5000 dilution in PBS+0.05% Tween-20. Finally, after washing 4 times with washing buffer, plates were developed by the addition of 50 μl per well of the HRP substrate TMB (ThermoFisher, 34021) for 9 min.” left out, “A positive control (broadly reactive plasma from donor CLM70) and a negative control (uninfected participant) samples were included in each experiment. The Area Under the Curve (AUC) was obtained from two independent experiments and plotted with GraphPad Prism.” left out

[3] = biological target: T3, CCL7 N-loop peptide; test: ELISA, biotinylated CCL7 N-loop peptide on neutravidin plate, OD450 nm
Experimental: as §1, with “Plates were subsequently washed 4 times with washing buffer and incubated with anti-human IgG secondary antibody conjugated to horseradish peroxidase (HRP) (GE Healthcare, NA933) at a 1:5000 dilution in PBS+0.05% Tween-20. Finally, after washing 4 times with washing buffer, plates were developed by the addition of 50 μl per well of the HRP substrate TMB (ThermoFisher, 34021) for 9 min.” left out, “A positive control (broadly reactive plasma from donor CLM70) and a negative control (uninfected participant) samples were included in each experiment. The Area Under the Curve (AUC) was obtained from two independent experiments and plotted with GraphPad Prism.” left out

[4] = biological target: T4, CCL11 N-loop peptide; test: ELISA, biotinylated CCL11 N-loop peptide on neutravidin plate, OD450 nm
Experimental: as §1, with “Plates were subsequently washed 4 times with washing buffer and incubated with anti-human IgG secondary antibody conjugated to horseradish peroxidase (HRP) (GE Healthcare, NA933) at a 1:5000 dilution in PBS+0.05% Tween-20. Finally, after washing 4 times with washing buffer, plates were developed by the addition of 50 μl per well of the HRP substrate TMB (ThermoFisher, 34021) for 9 min.” left out, “A positive control (broadly reactive plasma from donor CLM70) and a negative control (uninfected participant) samples were included in each experiment. The Area Under the Curve (AUC) was obtained from two independent experiments and plotted with GraphPad Prism.” left out

[5] = biological target: T5, CCL13 N-loop peptide; test: ELISA, biotinylated CCL13 N-loop peptide on neutravidin plate, OD450 nm
Experimental: as §1, with “Plates were subsequently washed 4 times with washing buffer and incubated with anti-human IgG secondary antibody conjugated to horseradish peroxidase (HRP) (GE Healthcare, NA933) at a 1:5000 dilution in PBS+0.05% Tween-20. Finally, after washing 4 times with washing buffer, plates were developed by the addition of 50 μl per well of the HRP substrate TMB (ThermoFisher, 34021) for 9 min.” left out, “A positive control (broadly reactive plasma from donor CLM70) and a negative control (uninfected participant) samples were included in each experiment. The Area Under the Curve (AUC) was obtained from two independent experiments and plotted with GraphPad Prism.” left out

[6] = biological target: T6, CCL8 N-loop peptide; test: ELISA, biotinylated CCL8 N-loop peptide on neutravidin plate, anti-human IgG-HRP, OD450 nm
Experimental: as §1

[7] = biological target: SARS-CoV-2 Spike (S) protein (SARS-CoV-2, UniProt P0DTC2 14-1208); test: ELISA on coated Spike protein (FIG. 2E)
Experimental: Plates were washed 4 times with washing buffer (PBS+0.05% Tween-20 [Sigma-Aldrich]) and incubated with 50 μl per well of a 50 nM biotinylated peptide solution in PBS for 1 h at room temperature. After washing 4 times with washing buffer, plates were incubated with 200 μl per well of blocking buffer (PBS+2% BSA+0.05% Tween-20) for 2 h at room temperature. Plates were then washed 4 times with washing buffer, and serial dilutions of monoclonal antibodies or plasma were added in PBS +0.05% Tween-20 and incubated for 1 h at room temperature. […] Monoclonal antibodies were tested at 5 μg/ml starting concentration followed by 11 threefold serial dilutions. Plates were subsequently washed 4 times with washing buffer and incubated with anti-human IgG secondary antibody conjugated to horseradish peroxidase (HRP) (GE Healthcare, NA933) at a 1:5000 dilution in PBS+0.05% Tween-20. […] The developing reaction was stopped with 50 μl per well of a 1 M H₂SO₄ solution, and absorbance was measured at 450 nm with an ELISA microplate reader (BioTek) with Gen5 software. […] The Area Under the Curve (AUC) was obtained from two independent experiments and plotted with GraphPad Prism.

[8] = biological target: T5, CCL13 N-loop peptide; test: ELISA on biotinylated N-loop peptide (FIG. 2D)
Experimental: as §1

[9] = biological target: T2, CCL2 N-loop peptide; test: ELISA on biotinylated N-loop peptide (FIG. 2D)
Experimental: as §1

[10] = biological target: T3, CCL7 N-loop peptide; test: ELISA on biotinylated N-loop peptide (FIG. 2D)
Experimental: as §1

[11] = biological target: T4, CCL11 N-loop peptide; test: ELISA on biotinylated N-loop peptide (FIG. 2D)
Experimental: as §1

[12] = biological target: T7, CXCL13 N-loop peptide; test: ELISA, biotinylated CXCL13 N-loop peptide on neutravidin plate, anti-human IgG-HRP, OD450 nm
Experimental: as §1

Binder | binding result [2] | binding result [3] | binding result [4] | binding result [5] | EC50 (read off the curve) [6] [ng/mL] | binding result [7] | binding result [8] | binding result [9] | binding result [10] | binding result [11] | other results
B1 |  |  |  |  |  |  |  |  |  |  | EC50 (read off the curve) [1]: ~200 ng/mL
B2 | no binding (tested: 5000 ng/ml) | no binding (tested: 5000 ng/ml) | no binding (tested: 5000 ng/ml) | no binding (tested: 5000 ng/ml) | ~10 |  |  |  |  |  | 
B3 |  |  |  |  | ~10 | no binding | no binding (tested: 5 µg/ml starting concentration) | no binding (tested: 5 µg/ml starting concentration) | no binding (tested: 5 µg/ml starting concentration) | no binding (tested: 5 µg/ml starting concentration) | 
B4 |  |  |  |  | ~10 | no binding | no binding (tested: 5 µg/ml starting concentration) | no binding (tested: 5 µg/ml starting concentration) | no binding (tested: 5 µg/ml starting concentration) | no binding (tested: 5 µg/ml starting concentration) | 
B5 | no binding (tested: 5000 ng/ml) | no binding (tested: 5000 ng/ml) | no binding (tested: 5000 ng/ml) | no binding (tested: 5000 ng/ml) | ~10 |  |  |  |  |  | 
B6 |  |  |  |  |  |  |  |  |  |  | binding result [12]: binds
